From US20180362652A1 (Biogen, published 2018)
Substitutions are numbered along the chain they refer to. Numbers in names are those of the source. Read-outs that look alike come from different tables or passages of the source. Values belong to the binder of their own block, whether it stands above or below them.

Legend:
[1] = target: T1, monomeric huBDCA2 ectodomain (human, UniProt Q8WTT0 45-213); assay: Octet, mAb from conditioned medium on anti-human Fc tips, monomeric huBDCA2 in solution
T1 construct: Prepared by proteolytic cleavage of the purified muIgG2a Fc-huBDCA2 fusion protein (pEAG2423); also called human BDCA2 ectodomain; human BDCA2 ECD
T1 sequence: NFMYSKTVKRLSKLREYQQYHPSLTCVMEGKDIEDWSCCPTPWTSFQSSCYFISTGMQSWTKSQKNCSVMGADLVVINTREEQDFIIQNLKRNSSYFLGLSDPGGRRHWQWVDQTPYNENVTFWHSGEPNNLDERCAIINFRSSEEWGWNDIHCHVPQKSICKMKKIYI
Protocol: Backmutation to the unpaired cysteine, i.e., S95C, was constructed by site-directed mutagenesis producing plasmid pYL749. Variants S95T, S95A, and S95V were constructed by site-directed mutagenesis producing plasmids pYL750, pYL751, and pYL752, respectively. The full-length light chain cDNA sequences in the resultant plasmids were confirmed by DNA sequencing. […] Conditioned medium was harvested at 2 days post-transfection. […] Conditioned medium containing the C95 variant mAbs was assayed by Octet for binding to human BDCA2 ectodomain. Antibodies from conditioned medium from transiently transfected cells were bound to anti-human Fc tips, then monomeric huBDCA2 was flowed over the Octet tips, to examine binding and dissociation.

[2] = target: T1, monomeric huBDCA2 ectodomain; assay: Octet, mAb on anti-human Fc tips, monomeric huBDCA2 in solution
Protocol: Site-directed mutagenesis was performed using Agilent's QuikChange II mutagenesis kit following the manufacturer's recommended protocol. […] Mutated plasmids were identified by screening for the introduced restriction site changes. The full-length light chain cDNA sequences in the resultant plasmids were confirmed by DNA sequencing. […] Conditioned medium was harvested at 2 days post-transfection. […] Antibodies from conditioned medium from transiently transfected cells were bound to anti-human Fc tips, then monomeric huBDCA2 was flowed over the Octet tips, to examine binding and dissociation.

[3] = target: T2, human BDCA2 (full-length, cell surface) (human, UniProt Q8WTT0 1-213); assay: direct binding FACS on surface BDCA2, conditioned medium
T2 construct: also called huBDCA2; surface human BDCA2
T2 sequence: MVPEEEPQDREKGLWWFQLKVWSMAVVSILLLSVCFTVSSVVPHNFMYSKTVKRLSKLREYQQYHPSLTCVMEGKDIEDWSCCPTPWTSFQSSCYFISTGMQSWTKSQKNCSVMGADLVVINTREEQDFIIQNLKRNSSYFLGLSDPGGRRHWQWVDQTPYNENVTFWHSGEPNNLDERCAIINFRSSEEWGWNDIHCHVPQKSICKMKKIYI

[4] = target: T3, cynomolgus monkey BDCA2 (full-length, cell surface, E73 SNP form) (cynomolgus monkey, UniProt Q8WTT0 1-213 (human entry)); assay: direct binding FACS, conditioned medium on CHO cells co-expressing BDCA2 and FcεRIγ
T3 construct: also called cyno BDCA2; surface cynomolgus monkey BDCA2
T3 chain: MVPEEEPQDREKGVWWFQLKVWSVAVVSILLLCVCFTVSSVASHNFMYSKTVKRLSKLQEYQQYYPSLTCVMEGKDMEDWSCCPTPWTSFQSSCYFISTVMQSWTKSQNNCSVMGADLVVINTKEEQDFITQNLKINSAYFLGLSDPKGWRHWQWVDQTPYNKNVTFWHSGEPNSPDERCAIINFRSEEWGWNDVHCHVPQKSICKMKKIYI
Protocol: (§1) Conditioned medium was assayed by direct binding FACS on stably transfected DG44 CHO cells co-expressing full-length BDCA2 and FcεRIγ cDNAs (human or cynomolgus monkey), (relevant expression vectors are human BDCA2/FcεRIγ: pEAG2456, cyno BDCA2/FcεRIγ: pEAG2668).

[5] = target: T3, cynomolgus monkey BDCA2 (full-length, …); assay: direct binding FACS, conditioned medium on CHO cells co-expressing cynomolgus BDCA2 and FcεRIγ
Protocol: as §1

[6] = target: T2, human BDCA2 (full-length, cell surface); assay: direct binding FACS, conditioned medium on CHO cells co-expressing BDCA2 and FcεRIγ
Protocol: as §1

[7] = target: T1, monomeric huBDCA2 ectodomain; assay: Octet, mAb from conditioned medium on anti-human Fc tips, monomeric huBDCA2 in solution; remark: listed apart in the source
Protocol: The monomeric huBDCA2 ectodomain was prepared by proteolytic cleavage from the purified muIgG2a Fc-huBDCA2 fusion protein (relevant plasmid: pEAG2423). Antibodies from conditioned medium from transiently transfected cells were bound to anti-human Fc tips, and then monomeric huBDCA2 was flowed over the Octet tips, to examine binding and dissociation.

binding result [4]: no binding
B8: hu24F4 H0/L0 (antibody, V domains shown)
VH: EVQLVESGGGLVKPGGSLRLSCAASGFTFSTYTMSWVRQAPGKGLEWVSAISGSGGSTYYADSVKGRFTISRDNAKNSLYLQMNSLRAEDTAVYYCARDIYYNYGAWFAYWGQGTLVTVSS
VL: AIQLTQSPSSLSASVGDRVTITCKASQSVDYDGDSYMNWYQQKPGKAPKLLIYAASTLESGVPSRFSGSGSGTDFTLTISSLQPEDFATYYCQQSNEDPRTFGQGTKVEIK
notes: Humanized variant, human IgG1/kappa, conditioned medium of 293E cells; also called H0 series of hu24F4

binding result [4]: no binding
B11: hu24F4 H1/L0 (antibody, V domains shown)
VH: B8 VH with A50T, G53P, S54G, G55D, G56S, S57F, T58G, A61P
VL: B8 VL
notes: Humanized variant, human IgG1/kappa, conditioned medium of 293E cells; also called H1 series of hu24F4

binding result [5]: no binding (tested: about 7000 ng/ml)
B12: hu24F4 H2/L1 (antibody, V domains shown)
VH: EVQLVESGGGLVKPGGSLRLSCAASGFTFSTYTMSWVRQAPGKGLEWVSTISPGDSSTIYYADSVKGRFTISRDNAKNSLYLQMNSLRAEDTAVYYCARDIYYNYGAWFAYWGQGTLVTVSS
VL: B8 VL with A1D
notes: Humanized variant, human IgG1/kappa, conditioned medium of 293E cells; also called H2 series of hu24F4

binding result [6]: no binding
binding result [4]: no binding
B16: hu24F4 H1/L2 (antibody, V domains shown)
VH: B8 VH with A50T, G53P, S54G, G55D, G56S, S57F, T58G, A61P
VL: B8 VL with A1D, A13V, V19A, T22S, L82V
notes: as for B11

binding result [5]: no binding (tested: about 5000 ng/ml)
B17: hu24F4 H1/L1 (antibody, V domains shown)
VH: B8 VH with A50T, G53P, S54G, G55D, G56S, S57F, T58G, A61P
VL: B8 VL with A1D
notes: as for B11

binding result [6]: no binding
binding result [4]: no binding
B19: hu24F4 H0/L2 (antibody, V domains shown)
VH: B8 VH
VL: B8 VL with A1D, A13V, V19A, T22S, L82V
notes: as for B8

More lines, now with the values behind:

B1: hu24F4 H5/L1 C95A (antibody, V domains shown)
VH: DVQLVQSGGGLVKPGGSLRLSCAASGFTFSTYTMSWVRQAPGKGLEWVATISPGDSFGYYYPDSVQGRFTISRDNAKNSLYLQMNRLRAEDTAVYYCTRDIYYNYGAWFAYWGRGTLVTVSS
VL: DIQLTQSPSSLSASVGDRVTITCKASQSVDYDGDSYMNWYQQKPGKAPKLLIYAASTLESGVPSRFSGSGSGTDFTLTISSLQPEDFATYYCQQANEDPRTFGQGTKVEIKR
notes: also called H5/L1 C95A variant
binding result [1]: binds

B2: ch24F4 C95S variant (antibody, human IgG1, kappa, V domains shown)
VH: DVKLVESGGGLVKPGGSLKLSCAASGFTFSTYTMSWVRQTPEKRLEWVATISPGDSFGYYYPDSVQGRFTISRDNAKNTLFLQMSSLKSEDTAMYYCTRDIYYNYGAWFAYWGQGTLVTVSA
VL: DIVLTQSPASLAVSLGQRATISCKASQSVDYDGDSYMNWYQQKPGQPPKLLIYAASTLESGVPARFSGSGSGTDFTLNIHPVEEEDAATYYCQQSNEDPRTFGGGTKLEIKR
notes: pYL672 with pEAG2678; conditioned medium of 293E cells
binding result [2]: binds
binding result [3]: binds

B3: ch24F4 C95T variant (antibody, human IgG1, kappa, V domains shown)
VH: B2 VH
VL: B2 VL with S95T
notes: pYL672 with pEAG2679; conditioned medium of 293E cells
binding result [2]: binds
binding result [3]: binds

B4: hu24F4 H2/L0 (antibody, V domains shown)
VH: B12 VH
VL: B8 VL
notes: as for B12
binding result [4]: no binding

B5: hu24F4 H0/L1 (antibody, V domains shown)
VH: B8 VH
VL: B8 VL with A1D
notes: as for B8
binding result [5]: no binding (tested: about 6000 ng/ml)

B6: hu24F4 H4/L2 (antibody, V domains shown)
VH: B1 VH with Q6E, R86S, R114Q
VL: B8 VL with A1D, A13V, V19A, T22S, L82V
notes: Humanized variant, human IgG1/kappa, conditioned medium of 293E cells; also called H4 series of hu24F4
binding result [1]: binds
binding result [6]: binds
binding result [4]: binds

B7: hu24F4 H2/L2 (antibody, V domains shown)
VH: B12 VH
VL: B8 VL with A1D, A13V, V19A, T22S, L82V
notes: as for B12
binding result [6]: no binding
binding result [4]: no binding

B9: hu24F4 H4/L1 S95T (antibody, human IgG1, V domains shown)
VH: B1 VH with Q6E, R86S, R114Q
VL: B8 VL with A1D, S95T
notes: Human IgG1/kappa; conditioned medium of 293E cells; also called H4-L1-C95T (YL750/YL746); hu24F4 H4/L1 C95T
Kd [1]: 0.392 nM
koff [1]: 0.00037 s⁻¹
kon [1]: 944000 M⁻¹ s⁻¹

B10: hu24F4 H6/L2 (antibody, V domains shown)
VH: B1 VH with Q6E, P53G, D55N, S56N, F57Y, Y60S, Q66K, R86S, R114Q
VL: B8 VL with A1D, A13V, V19A, T22S, L82V
notes: Humanized variant, human IgG1/kappa, conditioned medium of 293E cells; also called H6 series of hu24F4
binding result [6]: binds
binding result [4]: binds

B13: hu24F4 H4/L1 S95V (antibody, human IgG1, V domains shown)
VH: B1 VH with Q6E, R86S, R114Q
VL: B8 VL with A1D, S95V
notes: Human IgG1/kappa; conditioned medium of 293E cells; also called H4-L1-C95V (YL752/YL746)
Kd [1]: 0.323 nM
koff [1]: 0.000301 s⁻¹
kon [1]: 933000 M⁻¹ s⁻¹

B14: hu24F4 H5/L2 (antibody, V domains shown)
VH: B1 VH
VL: B8 VL with A1D, A13V, V19A, T22S, L82V
notes: Humanized variant, human IgG1/kappa, conditioned medium of 293E cells; also called H5 series of hu24F4
binding result [1]: binds
binding result [6]: binds
binding result [4]: binds

B15: hu24F4 H3/L2 (antibody, V domains shown)
VH: B12 VH with S57F, T58G, I59Y, A62P, K66Q
VL: B8 VL with A1D, A13V, V19A, T22S, L82V
notes: Humanized variant, human IgG1/kappa, conditioned medium of 293E cells; also called H3 series of hu24F4
binding result [6]: binds
binding result [4]: binds

B18: hu24F4 H4/L1 S95C (antibody, human IgG1, V domains shown)
VH: B1 VH with Q6E, R86S, R114Q
VL: B8 VL with A1D, S95C
notes: Human IgG1/kappa; conditioned medium of 293E cells; also called H4-L1-S95C (YL749/YL746)
Kd [1]: 0.289 nM
koff [1]: 0.000279 s⁻¹
kon [1]: 967000 M⁻¹ s⁻¹

B20: hu24F4 H6/L0 (antibody, V domains shown)
VH: B1 VH with Q6E, P53G, D55N, S56N, F57Y, Y60S, Q66K, R86S, R114Q
VL: B8 VL
notes: as for B10
Kd [7]: 5 nM
koff [7]: 0.00137 s⁻¹
kon [7]: 273000 M⁻¹ s⁻¹
